These results are taken from patent US20110275559A1, “Long-Acting Y2 and/or Y4 Receptor Agonists” (Novo Nordisk A/S, priority 2008, published 2011).

Broadly, the half-life is the time needed for the level to fall by half in the phase considered. High values mean slow loss, low ones fast loss.

*1 amine or outer side, *2 acyl side, *3 side chain or, on linkers, in order; H or OH if unused. Where a SMILES comes first, the peptide text is derived from it. Where no end group is shown, it is not given here. Side-chain parts run from the residue outwards. The star is where a group is joined. C20 diacid = O=C(O)CCCCCCCCCCCCCCCCCCC(=O)*; C18 diacid = O=C(O)CCCCCCCCCCCCCCCCC(=O)*; γGlu = O=C(O)[C@H](CCC(=O)[*:2])N[*:1]; Trx = NC[C@H]1CC[C@H](C(=O)O)CC1; AEEA = NCCOCCOCC(=O)O

The nature of data set [1]: Mini-pig PK assay (plasma half-life). Particulars: Göttingen, minipig, iv. Here is the method: (§1) The mini-pigs had two central venous catheters inserted which were used for intra venous (i.v.) dosing and bloodsampling. Compound was dissolved in 50 mM K2HPO4, 0.05% tween 80, pH=8.0 to a concentration of 180 nmol/ml. The pigs were dosed with 6 nmol compound/kg body weight. […] The blood samples were collected into test tubes containing EDTA buffer for stabilization and kept on ice for max. 20 minutes before centrifugation. The centrifugation procedure to separate plasma was; 4° C., 3000 rpm for 10 minutes. Plasma were collected and immediately transferred to Micronic tubes stored at −20° C. until assayed.
An additional mini-pig PK assay was used for measuring PK of the compounds of the invention. […] The animals had two central venous catheters inserted which were used for intra venous (i.v.) dosing and blood sampling. Compounds were dissolved in 10 mM Na2HPO4, 150 mM NaCl, 0.01% tween 80, pH=4.0 to concentrations in the range of 40 nmol/ml to 200 nmol/ml. The mini-pigs were dosed i.v. with 10 nmol compound/kg body weight, occasionally other doses such as 4 nmol/kg, 30 nmol/kg or 50 nmol/kg were administered. Each compound was dosed to 3 or 4 mini-pigs, and two compounds may be given simultaneously to the same animal. Blood were sampled pre-dose and 12 times during the first 10 hours post-dose. Blood were furthermore sampled once daily until 13 days post dosing. The blood samples were collected into test tubes containing EDTA buffer, trasylol and Val-Pyr for stabilization and kept on ice for max. 20 minutes. Samples were centrifuged at 4° C., 2000G for 10 minutes to separate plasma. Plasma were collected and immediately transferred to Micronic tubes stored at −20° C. until assayed.
Plasma samples were analysed by LC-MS on an LTQ-Orbitrap (ThermoFisher Scientific, Bremen) to which Accela HPLC pumps and an autosampler were connected (both from ThermoFisher). […] HPLC was performed on a Jupiter Proteo column (4μ) 90A (50×2.0 mm ID). […] The flow rate was 0.3 ml/min. For analysis of plasma samples, 30 μl plasma was precipitated with 90 μl ethanol. […] The heptane phase was removed after 5 min and the remaining solution was analysed by LC-MS as described above. For construction of plasma standards, compound was spiked to plasma (minipig) at the following concentrations: 1 nM, 2 nM, 5 nM, 10 nM, 20 nM, 50 nM, 100 nM, 200 nM. The plasma standards were treated as the samples. The lower limit of quantification was estimated to 2 nM.
Non-compartmental analysis (NCA): Plasma concentration-time profiles were analyzed by non-compartmental pharmacokinetics analysis (NCA) using WinNonlin Professional 5.0 (Pharsight Inc., Mountain View, Calif., USA). NCA was performed using the individual plasma concentration-time profiles from each animal.
For determination of plasma concentration of the PYY and PP peptide derivative or analogues thereof the following Methods 1-4 were used.
as §1, with “bloodsampling. The compound” for “bloodsampling. Compound”, “to an appropriate” for “to a”, “concentration (e.g. 25-500 nmol/mL).” for “concentration of 180 nmol/ml.”, “dosed intravenously (i.v.) or subcutaneously (s.c.)” for “dosed”, “with between 1 and 30” for “with 6”, “buffer (with Aprotinin 15000 KIE/mL and Val-Pyr 0.30 mM)” for “buffer”
An additional mini-pig PK assay was used for measuring PK of the compounds of the invention. […] The animals had two central venous catheters inserted which were used for intra venous (i.v.) dosing and blood sampling.

Data set [2] concerns the target T1, Y2 receptor (UniProt P49146 1-381, limits assumed).
T1 sequence (looked up): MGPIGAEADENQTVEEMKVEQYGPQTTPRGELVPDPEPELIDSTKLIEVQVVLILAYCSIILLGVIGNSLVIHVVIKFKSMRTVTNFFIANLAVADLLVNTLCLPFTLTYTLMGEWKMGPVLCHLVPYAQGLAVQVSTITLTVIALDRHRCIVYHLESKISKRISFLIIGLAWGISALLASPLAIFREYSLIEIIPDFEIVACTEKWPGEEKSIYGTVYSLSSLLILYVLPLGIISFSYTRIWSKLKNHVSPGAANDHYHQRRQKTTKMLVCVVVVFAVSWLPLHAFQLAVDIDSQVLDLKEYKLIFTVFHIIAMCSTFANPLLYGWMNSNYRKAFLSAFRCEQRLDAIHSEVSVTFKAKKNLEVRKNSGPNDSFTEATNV
As to the kind of experiment: cell-based or functional assay.

Data set [3] has as its target Y4 receptor (UniProt P50391 1-375, limits assumed). As to the kind of experiment: cell-based or functional assay.

Sequence of Y4 receptor (P50391 whole entry): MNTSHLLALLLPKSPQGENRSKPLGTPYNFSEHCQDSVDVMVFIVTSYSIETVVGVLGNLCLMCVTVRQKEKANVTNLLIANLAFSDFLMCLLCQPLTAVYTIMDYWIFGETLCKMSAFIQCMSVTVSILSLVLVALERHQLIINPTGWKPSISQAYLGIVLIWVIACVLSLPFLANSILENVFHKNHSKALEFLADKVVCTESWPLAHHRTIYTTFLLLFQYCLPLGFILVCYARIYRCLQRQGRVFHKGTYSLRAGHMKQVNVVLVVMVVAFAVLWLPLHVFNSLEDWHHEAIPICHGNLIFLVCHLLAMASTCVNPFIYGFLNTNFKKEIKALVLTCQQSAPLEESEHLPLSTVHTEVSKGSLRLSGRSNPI

As to `CC[C@H](C)[C@H](NC(=O)[C@H](Cc1ccc(O)cc1)NC(=O)[C@H](CCCNC(=N)N)NC(=O)[C@H](CCCCNC(=O)COCCOCCNC(=O)COCCOCCNC(=O)CC[C@H](NC(=O)[C@H]1CC[C@H](CNC(=O)CCCCCCCCCCCCCCCCCCC(=O)O)CC1)C(=O)O)NC(=O)[C@H](CC(C)C)NC(=O)[C@H](CC(=O)O)NC(=O)[C@H](C)NC(=O)[C@H](C)NC(=O)[C@H](Cc1ccc(O)cc1)NC(=O)[C@H](CCC(N)=O)NC(=O)[C@H](C)NC(=O)[C@H](CC(C)C)NC(=O)[C@H](CCC(N)=O)NC(=O)[C@H](CCC(=O)O)NC(=O)[C@@H]1CCCN1C(=O)[C@@H](NC(=O)[C@H](C)NC(=O)[C@H](CC(N)=O)NC(=O)[C@H](CC(=O)O)NC(=O)CNC(=O)[C@@H]1CCCN1C(=O)[C@H](Cc1ccc(O)cc1)NC(=O)[C@@H](NC(=O)[C@@H]1CCCN1C(=O)[C@H](CCC(=O)O)NC(=O)[C@H](CC(C)C)NC(=O)[C@@H]1CCCN1C(=O)[C@H](C)N)C(C)C)[C@@H](C)O)C(=O)N[C@@H](CC(N)=O)C(=O)N[C@@H](CC(C)C)C(=O)N[C@@H](CC(C)C)C(=O)N[C@H](C(=O)N[C@@H](CCCNC(=N)N)C(=O)N1CCC[C@H]1C(=O)N[C@@H](CCCNC(=N)N)C(=O)N[C@@H](Cc1ccc(O)cc1)C(N)=O)[C@@H](C)O` [SEQ ID NO: 71, N-epsilon25-[2-(2-{2-[2-(2-{2-[(S)-4-Carboxy-4-({trans-4-[(19-carboxynonadecanoylamino)methyl]cyclohexanecarbonyl}amino)butyrylamino]-ethoxy}ethoxy)acetylamino]ethoxy}ethoxy)acetyl][Leu17,Lys25,Leu30]hPP1-36] (H-APLEPVYPGDNATPEQLAQYAADLK([AEEA-AEEA-γGlu-Trx-C20 diacid])RYINLLTRPRY-NH2), the half-life in data set [1] (in vivo, 13 nmol/kg) is 780 min. For the molecule `CC[C@H](C)[C@H](NC(=O)[C@H](Cc1ccc(O)cc1)NC(=O)[C@H](CCCNC(=N)N)NC(=O)[C@H](CCCNC(=N)N)NC(=O)[C@H](CC(C)C)NC(=O)[C@H](CC(=O)O)NC(=O)[C@H](C)NC(=O)[C@H](C)NC(=O)[C@H](Cc1ccc(O)cc1)NC(=O)[C@H](CCC(N)=O)NC(=O)[C@H](C)NC(=O)[C@H](CC(C)C)NC(=O)[C@H](CCC(N)=O)NC(=O)[C@H](CCCCNC(=O)COCCOCCNC(=O)COCCOCCNC(=O)CC[C@H](NC(=O)[C@H]1CC[C@H](CNC(=O)CCCCCCCCCCCCCCCCCCC(=O)O)CC1)C(=O)O)NC(=O)[C@@H]1CCCN1C(=O)[C@@H](NC(=O)[C@H](C)NC(=O)[C@H](CC(N)=O)NC(=O)[C@H](CC(=O)O)NC(=O)CNC(=O)[C@@H]1CCCN1C(=O)[C@H](Cc1ccc(O)cc1)NC(=O)[C@@H](NC(=O)[C@@H]1CCCN1C(=O)[C@H](CCC(=O)O)NC(=O)[C@H](CC(C)C)NC(=O)[C@@H]1CCCN1C(=O)[C@H](C)N)C(C)C)[C@@H](C)O)C(=O)N[C@@H](CC(N)=O)C(=O)N[C@@H](CC(C)C)C(=O)N[C@@H](CC(C)C)C(=O)N[C@H](C(=O)N[C@@H](CCCNC(=N)N)C(=O)N1CCC[C@H]1C(=O)N[C@@H](CCCNC(=N)N)C(=O)N[C@@H](Cc1ccc(O)cc1)C(N)=O)[C@@H](C)O` [SEQ ID NO: 72, N-epsilon15-[2-(2-{2-[2-(2-{2-[(S)-4-Carboxy-4-({trans-4-[(19-carboxynonadecanoylamino)methyl]cyclohexanecarbonyl}amino)butyrylamino]-ethoxy}ethoxy)acetylamino]ethoxy}ethoxy)acetyl][Leu17,Lys15,Leu30]hPP1-36] (H-APLEPVYPGDNATPK([AEEA-AEEA-γGlu-Trx-C20 diacid])QLAQYAADLRRYINLLTRPRY-NH2), the half-life in data set [1] (in vivo, 8 nmol/kg) was 840 min.

On to `CC[C@H](C)[C@H](NC(=O)[C@H](Cc1ccc(O)cc1)NC(=O)[C@H](CCCNC(=N)N)NC(=O)[C@H](CCCNC(=N)N)NC(=O)[C@H](CC(C)C)NC(=O)[C@H](CC(=O)O)NC(=O)[C@H](C)NC(=O)[C@H](C)NC(=O)[C@H](Cc1ccc(O)cc1)NC(=O)[C@H](CCC(N)=O)NC(=O)[C@H](C)NC(=O)[C@H](CC(C)C)NC(=O)[C@H](CCC(N)=O)NC(=O)[C@H](CCC(=O)O)NC(=O)[C@@H]1CCCN1C(=O)[C@H](CCCCNC(=O)COCCOCCNC(=O)COCCOCCNC(=O)CC[C@H](NC(=O)[C@H]1CC[C@H](CNC(=O)CCCCCCCCCCCCCCCCCCC(=O)O)CC1)C(=O)O)NC(=O)[C@H](C)NC(=O)[C@H](CC(N)=O)NC(=O)[C@H](CC(=O)O)NC(=O)CNC(=O)[C@@H]1CCCN1C(=O)[C@H](Cc1ccc(O)cc1)NC(=O)[C@@H](NC(=O)[C@@H]1CCCN1C(=O)[C@H](CCC(=O)O)NC(=O)[C@H](CC(C)C)NC(=O)[C@@H]1CCCN1C(=O)[C@H](C)N)C(C)C)C(=O)N[C@@H](CC(N)=O)C(=O)N[C@@H](CC(C)C)C(=O)N[C@@H](CC(C)C)C(=O)N[C@H](C(=O)N[C@@H](CCCNC(=N)N)C(=O)N[C@@H](CCC(N)=O)C(=O)N[C@@H](CCCNC(=N)N)C(=O)N[C@@H](Cc1ccc(O)cc1)C(=O)O)[C@@H](C)O` [SEQ ID NO: 74, N-epsilon13-[2-(2-{2-[2-(2-{2-[(S)-4-Carboxy-4-({trans-4-[(19-carboxynonadecanoylamino)methyl]cyclohexanecarbonyl}amino)butyrylamino]-ethoxy}ethoxy)acetylamino]ethoxy}ethoxy)acetyl][Leu17,Lys13,Gln34]hPP1-36 acid] (H-APLEPVYPGDNAK([AEEA-AEEA-γGlu-Trx-C20 diacid])PEQLAQYAADLRRYINLLTRQRY-OH; N-terminus assumed), for which the half-life in data set [1] (16 nmol/kg) is 480 min.

For {C18 diacid-γGlu-AEEA-AEEA}-PLEPVYPGDNATPEQLAQYAADLRRYINLLTRPRY (ends and bridges not checked), the “Y2 cAMP EC50” value in data set [2] was above 1000 nM.

As for APLEPVYPGDNAK([AEEA-AEEA-γGlu-C18 diacid])PEQMAQYAADLRRYINMLTRPRY (ends and bridges not checked) [N-epsilon13-[2-(2-{2-[2-(2-{2-[(S)-4-Carboxy-4-(17-carboxyheptadecanoylamino)butyrylamino]ethoxy}ethoxy)acetylamino]-ethoxy}ethoxy)acetyl][Lys13]hPP(1-36) (as …, listing 1 of 2 here], the “Y4 cAMP EC50” value in data set [3] came out at 2 nM.

With PLEPVYPGK([AEEA-AEEA-γGlu-Trx-C20 diacid])NATPEQLAQYAADLRRYINLLTRQRY (ends and bridges not checked), in data set [2], the “Y2 cAMP EC50” value was found to be 25 nM. For APLEPVYPGDNAK([AEEA-AEEA-γGlu-C18 diacid])PEQMAQYAADLRRYINMLTRPRY (ends and bridges not checked) [N-epsilon13-[2-(2-{2-[2-(2-{2-[(S)-4-Carboxy-4-(17-carboxyheptadecanoylamino)butyrylamino]ethoxy}ethoxy)acetylamino]-ethoxy}ethoxy)acetyl][Lys13]hPP(1-36) (as …, listing 2 of 2 here], the “Y4 cAMP EC50” value in data set [3] is 4 nM.

B1: N-alfa-[2-(2-{2-[2-(2-{2-[(S)-4-Carboxy-4-({trans-4-[(19-carboxynonadecanoylamino)methyl]cyclohexanecarbonyl}amino)butyrylamino]-ethoxy}ethoxy)acetylamino]ethox … (peptide)
peptide: PLEPVYPGDNATPEQLAQYAADLRRYINLLTRPRY
modifications: not fully specified (N-terminus); printed as N-alfa-[2-(2-{2-[2-(2-{2-[(S)-4-Carboxy-4-({trans-4-[(19-carboxynonadecanoylamino)methyl]cyclohexanecarbonyl}amino)butyrylamino]-ethoxy}ethoxy)acetylamino]ethoxy}ethoxy)acetyl][Leu17,Leu30]hPP2-36; ends and bridges not checked
Consider B1, for which the “Y2 cAMP EC50” value in data set [2] was above 1000 nM.
